What was measured:
[1] = molecular target: calmodulin (CaM) (human, UniProt P0DP23 2-149); experiment: Co-IP in endothelial cells; not affected by Myr-CBD7 pretreatment
[2] = molecular target: T1, mouse eNOS (mouse, UniProt P70313 2-1202); experiment: Co-IP from mouse wounds (FIG. 4)
T1 construct: whole, on cells; Endogenous protein in mouse wound homogenates used for Co-IP; also called eNOS (mouse wounds)
T1 sequence (looked up): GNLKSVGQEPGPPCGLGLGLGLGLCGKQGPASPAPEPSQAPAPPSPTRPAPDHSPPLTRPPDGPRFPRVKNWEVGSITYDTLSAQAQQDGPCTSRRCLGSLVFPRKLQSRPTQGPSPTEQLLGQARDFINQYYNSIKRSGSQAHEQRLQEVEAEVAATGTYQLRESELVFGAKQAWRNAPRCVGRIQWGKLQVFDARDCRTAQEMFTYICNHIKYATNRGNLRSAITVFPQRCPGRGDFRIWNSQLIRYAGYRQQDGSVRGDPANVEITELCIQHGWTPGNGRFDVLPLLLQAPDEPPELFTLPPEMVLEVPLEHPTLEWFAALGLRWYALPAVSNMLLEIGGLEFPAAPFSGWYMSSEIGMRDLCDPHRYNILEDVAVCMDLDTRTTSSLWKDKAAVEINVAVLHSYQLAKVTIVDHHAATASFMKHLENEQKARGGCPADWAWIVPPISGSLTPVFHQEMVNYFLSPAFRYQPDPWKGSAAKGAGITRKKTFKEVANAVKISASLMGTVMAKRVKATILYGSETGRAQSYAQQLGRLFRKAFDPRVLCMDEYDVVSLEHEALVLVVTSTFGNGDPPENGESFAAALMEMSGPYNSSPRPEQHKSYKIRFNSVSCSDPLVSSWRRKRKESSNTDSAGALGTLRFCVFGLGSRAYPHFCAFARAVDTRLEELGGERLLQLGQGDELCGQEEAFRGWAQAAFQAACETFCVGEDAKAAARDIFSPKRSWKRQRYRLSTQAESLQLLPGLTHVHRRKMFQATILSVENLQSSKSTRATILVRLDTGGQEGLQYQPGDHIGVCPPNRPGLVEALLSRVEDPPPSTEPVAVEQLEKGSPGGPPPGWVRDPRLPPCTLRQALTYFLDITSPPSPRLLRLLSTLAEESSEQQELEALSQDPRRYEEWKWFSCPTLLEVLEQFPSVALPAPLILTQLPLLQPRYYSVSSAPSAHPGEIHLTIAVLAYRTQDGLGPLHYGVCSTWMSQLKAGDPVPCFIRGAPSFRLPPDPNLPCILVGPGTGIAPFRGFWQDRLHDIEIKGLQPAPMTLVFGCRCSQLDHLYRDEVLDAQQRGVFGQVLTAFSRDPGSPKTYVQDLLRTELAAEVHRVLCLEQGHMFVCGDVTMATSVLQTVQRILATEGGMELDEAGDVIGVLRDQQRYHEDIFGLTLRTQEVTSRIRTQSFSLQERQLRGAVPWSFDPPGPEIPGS

B1: human endothelial nitric oxide synthase (eNOS) (enzyme)
chain: GNLKSVAQEPGPPCGLGLGLGLGLCGKQGPATPAPEPSRAPASLLPPAPEHSPPSSPLTQPPEGPKFPRVKNWEVGSITYDTLSAQAQQDGPCTPRRCLGSLVFPRKLQGRPSPGPPAPEQLLSQARDFINQYYSSIKRSGSQAHEQRLQEVEAEVAATGTYQLRESELVFGAKQAWRNAPRCVGRIQWGKLQVFDARDCRSAQEMFTYICNHIKYATNRGNLRSAITVFPQRCPGRGDFRIWNSQLVRYAGYRQQDGSVRGDPANVEITELCIQHGWTPGNGRFDVLPLLLQAPDDPPELFLLPPELVLEVPLEHPTLEWFAALGLRWYALPAVSNMLLEIGGLEFPAAPFSGWYMSTEIGTRNLCDPHRYNILEDVAVCMDLDTRTTSSLWKDKAAVEINVAVLHSYQLAKVTIVDHHAATASFMKHLENEQKARGGCPADWAWIVPPISGSLTPVFHQEMVNYFLSPAFRYQPDPWKGSAAKGTGITRKKTFKEVANAVKISASLMGTVMAKRVKATILYGSETGRAQSYAQQLGRLFRKAFDPRVLCMDEYDVVSLEHETLVLVVTSTFGNGDPPENGESFAAALMEMSGPYNSSPRPEQHKSYKIRFNSISCSDPLVSSWRRKRKESSNTDSAGALGTLRFCVFGLGSRAYPHFCAFARAVDTRLEELGGERLLQLGQGDELCGQEEAFRGWAQAAFQAACETFCVGEDAKAAARDIFSPKRSWKRQRYRLSAQAEGLQLLPGLIHVHRRKMFQATIRSVENLQSSKSTRATILVRLDTGGQEGLQYQPGDHIGVCPPNRPGLVEALLSRVEDPPAPTEPVAVEQLEKGSPGGPPPGWVRDPRLPPCTLRQALTFFLDITSPPSPQLLRLLSTLAEEPREQQELEALSQDPRRYEEWKWFRCPTLLEVLEQFPSVALPAPLLLTQLPLLQPRYYSVSSAPSTHPGEIHLTVAVLAYRTQDGLGPLHYGVCSTWLSQLKPGDPVPCFIRGAPSFRLPPDPSLPCILVGPGTGIAPFRGFWQERLHDIESKGLQPTPMTLVFGCRCSQLDHLYRDEVQNAQQRGVFGRVLTAFSREPDNPKTYVQDILRTELAAEVHRVLCLERGHMFVCGDVTMATNVLQTVQRILATEGDMELDEAGDVIGVLRDQQRYHEDIFGLTLRTQEVTSRIRTQSFSLQERQLRGAVPWAFDPPGSDTNSP
notes: whole, on cells; Endogenous intracellular / membrane-associated protein of human endothelial cells; co-immunoprecipitated from lysates
- binding result [1]: binds

B2: mouse CCR10 (receptor, UniProt Q9JL21 1-362, looked up)
chain: MGTKPTEQVSWGLYSGYDEEAYSVGPLPELCYKADVQAFSRAFQPSVSLMVAVLGLAGNGLVLATHLAARRTTRSPTSVHLLQLALADLLLALTLPFAAAGALQGWNLGSTTCRAISGLYSASFHAGFLFLACISADRYVAIARALPAGQRPSTPSRAHLVSVFVWLLSLFLALPALLFSRDGPREGQRRCRLIFPESLTQTVKGASAVAQVVLGFALPLGVMAACYALLGRTLLAARGPERRRALRVVVALVVAFVVLQLPYSLALLLDTADLLAARERSCSSSKRKDLALLVTGGLTLVRCSLNPVLYAFLGLRFRRDLRRLLQGGGCSPKPNPRGRCPRRLRLSSCSAPTETHSLSWDN
notes: whole, on cells; Endogenous protein in mouse wound homogenates used for Co-IP; also called CCR10 (mouse wounds)
- binding result [2]: binds

From patent US20220265759A1 (BOARD OF TRUSTEES OF THE UNIVERSITY OF ILLIOIS, published 2022)
